Tests used:
murine CD19 protein = biological target: T1, murine CD19 protein (murine, UniProt P25918 17-287, limits assumed); assay: ELISA, coated murine CD19
T1 construct: bought protein; also called commercial murine CD19
T1 sequence (looked up): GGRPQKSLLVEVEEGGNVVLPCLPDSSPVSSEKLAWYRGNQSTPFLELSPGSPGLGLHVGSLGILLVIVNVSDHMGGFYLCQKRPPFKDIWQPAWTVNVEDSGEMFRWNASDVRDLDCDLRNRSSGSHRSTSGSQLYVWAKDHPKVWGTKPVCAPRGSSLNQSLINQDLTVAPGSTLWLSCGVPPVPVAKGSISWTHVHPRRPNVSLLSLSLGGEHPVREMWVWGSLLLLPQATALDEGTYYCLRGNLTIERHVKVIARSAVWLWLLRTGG
How it was run: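 Plates coated overnight at 4° C with recombinant murine or monkey CD19 and blocked with 2% BSA. Chimeric antibodies, serially diluted from 100 nM, bound for 2 h at 37° C. TMB development for 10 min with OD450 read-out.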

Human CD19-his protein [1] = biological target: T2, Human CD19-his protein (human, UniProt P15391 20-291); assay: ELISA, antibody at 10 nM
T2 construct: bought protein; also called human CD19 protein; recombinant human CD19-His; not shown: His tag
T2 sequence (looked up): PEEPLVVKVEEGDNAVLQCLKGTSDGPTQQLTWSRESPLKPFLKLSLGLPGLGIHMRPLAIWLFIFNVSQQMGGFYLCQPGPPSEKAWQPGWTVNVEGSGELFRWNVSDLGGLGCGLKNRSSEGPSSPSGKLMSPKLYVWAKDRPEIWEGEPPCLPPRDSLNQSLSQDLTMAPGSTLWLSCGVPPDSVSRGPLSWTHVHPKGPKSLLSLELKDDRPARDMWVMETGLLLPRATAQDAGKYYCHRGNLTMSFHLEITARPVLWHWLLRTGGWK

Human CD19-his protein [2] = biological target: T2, Human CD19-his protein; assay: ELISA, antibody at 100 nM
Human CD19-his protein [3] = biological target: T2, Human CD19-his protein; assay: ELISA, antibody at 0.01 nM
Human CD19-his protein [4] = biological target: T2, Human CD19-his protein; assay: ELISA, antibody at 0.10 nM
Human CD19-his protein [5] = biological target: T2, Human CD19-his protein; assay: ELISA, antibody at 1.00 nM
Human CD19-his protein [6] = biological target: T2, Human CD19-his protein; assay: ELISA, antibody at 0.001 nM
Human CD19-his protein [7] = biological target: T2, Human CD19-his protein; assay: ELISA, antibody at 0.0001 nM
Human CD19-his protein [8] = biological target: T2, Human CD19-his protein; assay: ELISA on coated human CD19-His
Description: (§1) Human CD19-his protein (purchased from ACROBiosystems, catalog number: CD9-H52H2) was diluted with PBS to a final concentration of 4 μg/mL, and then added to a 96-well ELISA plate at 100 μl/well. The plate was sealed with a plastic film and incubated overnight at 4° C., the plate was washed 2 times with PBS the next day, and then a blocking solution [PBS+2% (w/w) BSA] was added for blocking at room temperature for 2 h. The blocking solution was poured off, and 100 nM gradiently diluted CD19 chimeric antibody or control antibody was added at 50 μl/well. After incubation at 37° C. for 2 h, the plate was washed 3 times with PBS. […] TMB substrate was added at 50 μl/well, and incubated at room temperature for 10 min, and then a stop solution (1.0 N HCl) was added at 50 μl/well. The OD450 nm values were read by an ELISA microplate reader (Multimode Plate Reader, EnSight, purchased from Perkin Elmer).

[9] = biological target: T3, human CD19 exon1-3-His tag protein (human, UniProt P15391 20-186, limits assumed); assay: ELISA on coated human CD19 exon 1-3-His
T3 construct: membrane-distal part of the extracellular region, made in HEK293E cells; not shown: His tag
T3 sequence (looked up): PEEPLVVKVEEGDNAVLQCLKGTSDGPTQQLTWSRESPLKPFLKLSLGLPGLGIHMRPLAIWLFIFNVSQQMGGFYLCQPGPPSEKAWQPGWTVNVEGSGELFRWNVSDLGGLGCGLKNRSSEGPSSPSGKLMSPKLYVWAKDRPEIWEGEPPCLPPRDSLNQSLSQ

Human CD19-his protein [10] = biological target: T4, Human CD19-his protein (human, UniProt P15391 20-291); assay: SPR Biacore, Ab captured on Protein A, CD19-His analyte
T4 construct: bought protein; also called recombinant human CD19-His; CD19 full-length protein; not shown: His tag
T4 sequence (looked up): T2 sequence (looked up)
How it was run: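 Antibodies were captured on a Protein A chip at 25 °C in HBS-EP+. Human CD19-His was injected for 240 s at 30 μl/min at 5 concentrations from 200 nM (1:1 dilutions), with dissociation up to 600 s. Data were double-referenced and fitted to a Langmuir 1:1 model for apparent KD.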

human CD19 on Raji cells = biological target: T5, human CD19 on Raji cells (human, UniProt P15391 20-556); assay: FACS on Raji cells
T5 construct: whole, on cells
T5 sequence (looked up): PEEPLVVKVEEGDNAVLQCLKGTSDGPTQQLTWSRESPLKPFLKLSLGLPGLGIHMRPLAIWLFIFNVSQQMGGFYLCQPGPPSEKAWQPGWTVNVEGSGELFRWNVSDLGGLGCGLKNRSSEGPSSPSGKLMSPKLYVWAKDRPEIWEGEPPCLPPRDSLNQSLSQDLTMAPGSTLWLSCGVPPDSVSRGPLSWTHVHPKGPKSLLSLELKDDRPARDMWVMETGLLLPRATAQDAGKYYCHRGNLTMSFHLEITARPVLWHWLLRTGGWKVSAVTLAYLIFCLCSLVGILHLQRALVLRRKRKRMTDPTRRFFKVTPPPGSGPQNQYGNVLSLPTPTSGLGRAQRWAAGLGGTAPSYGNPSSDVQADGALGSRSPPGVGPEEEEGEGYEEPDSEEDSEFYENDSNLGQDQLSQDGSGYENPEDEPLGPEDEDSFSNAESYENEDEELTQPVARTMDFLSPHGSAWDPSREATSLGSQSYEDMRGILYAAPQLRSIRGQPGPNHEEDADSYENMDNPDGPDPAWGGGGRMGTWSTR

[11] = biological target: T6, human CD19 on CHO-K1-human CD19 cells (human, UniProt P15391 20-556); assay: FACS on CHO-K1-human CD19 cells
T6 construct: whole, on cells; also called CHO-K1-human CD19-2C8
T6 sequence (looked up): T5 sequence (looked up)

monkey CD19 protein = biological target: T7, monkey CD19 protein (monkey); assay: ELISA, coated monkey CD19 protein
T7 construct: also called monkey CD19-His protein
Description: as §1
In order to detect the species cross-binding activity of the chimeric antibodies, an ELISA plate was coated with commercial murine CD19 (ACROBiosystems, catalog number: 50510-M08H) and monkey CD19 (ACROBiosystems, catalog number: 90051-C08H), respectively, and the ELISA detection was performed according to the method in example 5.1.

[12] = biological target: T8, monkey CD19 on HEK293T-monkey CD19 cells (monkey); assay: FACS on HEK293T-monkey CD19 cells
T8 construct: whole, on cells
How it was run: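 Cells blocked in PBS + 2% (w/w) BSA at 2×10⁶ cells/ml, then incubated with test antibody on ice for 2 h. After washes, binding read by flow cytometry as mean fluorescence intensity (MFI). EC50 from fitted MFI curves. Parental HEK293T cells run by the same method.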

B1: F3.74.4 (antibody, human IgG1, V domains shown)
VH: QVQLQQSGAELVRPGASVTLSCKASGYTFTDYEMHWVKQTPVHGLEWIGGIAPETGLTTYNQKFEDKAILTADKSSRTAYMELRSLTSEDSAVYFCNPNNYGLWGTGTTVTVSS
VL: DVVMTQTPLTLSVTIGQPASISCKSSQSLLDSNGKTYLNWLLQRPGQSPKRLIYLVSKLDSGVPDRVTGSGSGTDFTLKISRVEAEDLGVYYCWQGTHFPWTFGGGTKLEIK
notes: human-murine chimeric antibody, human IgG1
- binding result (murine CD19 protein): no binding
- OD450 (Human CD19-his protein [1]): 2.64
- OD450 (Human CD19-his protein [2]): 2.96
- OD450 (Human CD19-his protein [3]): 0.21
- OD450 (Human CD19-his protein [4]): 1.02
- OD450 (Human CD19-his protein [5]): 2.32
- OD450 (Human CD19-his protein [6]): 0.07
- OD450 (Human CD19-his protein [7]): 0.05
- EC50 (read off the curve) (Human CD19-his protein [8]): ~0.2 nM

B2: F5.8.6 (antibody, human IgG1, V domains shown)
VH: QVQLHQPGAELVMPGASVTLSCKASGYTFTSYWMHWVKQRPGQGLEWIGEIDPSDSYTTYDQKFKGKATLTVDKFSSTAYMQFSSLTSEDSAVYYCARLTGNHLDYWGQGTTLTVSS
VL: DIVMTQSHKFMSSSVGDRVSITCKASQDVSPAVAWYQQKPGQSPKLLIYSTSYRNTGVPDRFTGSGSGTDFTFTISSVQAEDLAVYYCQQHYSIPLTFGAGTKLELK
notes: human-murine chimeric antibody, human IgG1 constant
- binding result [9]: no binding (tested: 100 nM)
- Kd (Human CD19-his protein [10]): 5.98 nM
- koff (Human CD19-his protein [10]): 0.00108 s⁻¹
- kon (Human CD19-his protein [10]): 181000 M⁻¹ s⁻¹

B3: F3.148.10 (antibody, human IgG1, V domains shown)
VH: EVQLQQSGAELVRPGSSVTMSCKTSGYTFTNYGINWVKQRPGQGLEWIGYIFIGNDYTEYNEKFKGKATLTSDTSSSTAYMQLSSLTSEDSAIYFCTRFYSNYYGMDPWGQGTSVTVSS
VL: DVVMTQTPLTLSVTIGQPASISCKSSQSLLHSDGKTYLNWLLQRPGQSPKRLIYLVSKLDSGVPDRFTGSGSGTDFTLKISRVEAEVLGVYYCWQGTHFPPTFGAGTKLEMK
notes: as for B1
- EC50 (human CD19 on Raji cells): 0.28 nM
- Maximum mean fluorescence intensity (human CD19 on Raji cells): 31800
- EC50 [11]: 0.26 nM
- Maximum mean fluorescence intensity [11]: 4700
- OD450 at 0.0001 nM (monkey CD19 protein): 0.06 OD450
- OD450 at 0.001 nM (monkey CD19 protein): 0.06 OD450
- OD450 at 0.01 nM (monkey CD19 protein): 0.07 OD450
- OD450 at 0.10 nM (monkey CD19 protein): 0.13 OD450
- OD450 at 1.00 nM (monkey CD19 protein): 0.78 OD450
- OD450 at 10 nM (monkey CD19 protein): 1.93 OD450
- OD450 at 100 nM (monkey CD19 protein): 2.47 OD450
- Maximum mean fluorescence intensity [12]: 177

B4: F5.2.9 (antibody, human IgG1, V domains shown)
VH: QVTLKESGPGILQPSQTLSLTCSFSGFSLSTFGLGVGWVRQPSGKGLEWLAHIWWDDDKYYNPALKSRVTVSKETSKNQVFFKIANVDTADSATYYCARLSRGLRRDVVYAMDHWGQGTSVTVSS
VL: DIQMTQTTSSLSASLGDRVTISCRASQDISNYLNWYQQKPDGSVKLLISYVSRLQSGVPSRFRGSGSGTDYSLTISNLDQEDIATYFCQQGIAFPYTFGGGTKLDIK
notes: as for B2
- binding result [9]: no binding (tested: 100 nM)
- Kd (Human CD19-his protein [10]): 15.7 nM
- koff (Human CD19-his protein [10]): 0.000402 s⁻¹
- kon (Human CD19-his protein [10]): 25700 M⁻¹ s⁻¹

B5: F5.7.1 (antibody, human IgG1, V domains shown)
VH: QVTLKESGPGILQPSQTLSLTCSFSGFSLTTFGMGVGWIRQPSGKGLEWLTHIWWDDDKYYNPALKSRLTISKDTSKNQVFLRIANVDTADTATYYCARVITTGVPYFDYWGQGTTLTVSS
VL: ENVLTQSPAIMSASPGEKVTMTCRASSSVSSSYLYWYQQKSGASPKLWISSTSNLASGVPARFSGSGSGTSYSLTINSVEAEDAATYYCQQYSGYPWTFGGGTKLEIK
notes: as for B2
- binding result [9]: no binding (tested: 100 nM)
- Kd (Human CD19-his protein [10]): 1.18 nM
- koff (Human CD19-his protein [10]): 0.000225 s⁻¹
- kon (Human CD19-his protein [10]): 192000 M⁻¹ s⁻¹

B6: F3.77.6 (antibody, human IgG1, V domains shown)
VH: EFQLQQSGPELVKPGASVKISCKASGYSFTDYNMNWVKQSNGKSLEWIGTINPNYITSYNQKFKGKATLTVDQSSSTAYMQLNSLTSEDSAVYYCAGDYKGYWGQGTTLTVSS
VL: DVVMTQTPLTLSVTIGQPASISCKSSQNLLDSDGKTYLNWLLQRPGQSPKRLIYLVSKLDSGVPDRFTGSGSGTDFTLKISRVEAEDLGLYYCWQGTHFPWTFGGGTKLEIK
notes: as for B1
- binding result (murine CD19 protein): no binding
- OD450 (Human CD19-his protein [1]): 2.98
- OD450 (Human CD19-his protein [2]): 2.94
- OD450 (Human CD19-his protein [3]): 0.3
- OD450 (Human CD19-his protein [4]): 1.33
- OD450 (Human CD19-his protein [5]): 2.69
- OD450 (Human CD19-his protein [6]): 0.08
- OD450 (Human CD19-his protein [7]): 0.05
- EC50 (read off the curve) (Human CD19-his protein [8]): ~0.1 nM

B7: F4.82.11 (antibody, human IgG1, V domains shown)
VH: QVTLKESGPGILQASQTLSLTCSFSGFSLSTFGIGVGWVRQPSGKGLEWLAHIWWNDNKFFNTTLKNRLTLSKDPSNNQVFLKIASVDTADTATYYCARSRSALITTGLYAMDYWGQGTSVTVSS
VL: DIQMTQTPSSLSASLGDRVTISCRSSQDISNYVNWYQQKPDGTVKVLINYTSRLHSGVPSRFSGSGSGTDYSLTISNLEQEDIASYFCQQGFTLPYTFGGGTKLEIK
notes: as for B2
- binding result [9]: no binding (tested: 100 nM)
- Kd (Human CD19-his protein [10]): 22.7 nM
- koff (Human CD19-his protein [10]): 0.000774 s⁻¹
- kon (Human CD19-his protein [10]): 34100 M⁻¹ s⁻¹

B8: F5.3.6 (antibody, human IgG1, V domains shown)
VH: DVQLQESGPGLVKPSQSQSLTCSVTGYSITSGYYWNWIRQFPGNKLEWMGYISYDGSNNYNPSLKNRISITRDTSKNQFFLKLNSVTTEDTVTYYCARAPLTGDRYWYFDVWGTGTTVTVSS
VL: DIVLTQSPASLAVSLGQRATISCRASQSVSTSSYSYMHWYQQKPGQTPKLLIKYASNLKSGVPARFSGSGSGTDFTLNIHPVEEEDTATYYCQHSWEIPPTFGGGTKLEIK
notes: as for B2
- binding result [9]: no binding (tested: 100 nM)
- Kd (Human CD19-his protein [10]): 3.49 nM
- koff (Human CD19-his protein [10]): 0.000122 s⁻¹
- kon (Human CD19-his protein [10]): 35100 M⁻¹ s⁻¹

— patent publication US20250042994A1 (HAINAN SIMCERE ZAIMING PHARMACEUTICAL, published 2025)
